30 sequences from the nanobody polyreactivity screen of Harvey et al. (2022) can be followed below.

The series can be described thus: yeast display, Sf9 membrane polyspecificity reagent, FACS + sequencing; frameworks hold sequencing errors. An outline of the steps: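 Galactose-induced (36–48 hours) yeast carrying a synthetic nanobody display library were exposed to 10% biotinylated, detergent-solubilized Sf9 membrane reagent at 4 °C for 1 hour. FACS followed streptavidin microbead enrichment, using low and high (top ~1%) gates for expression (anti-HA) and reagent binding (streptavidin). Colony PCR, MiSeq 2 × 250 sequencing and CDR-length filtering followed. Labels for polyreactivity reflect the gate of origin.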
Turning to “QVQLVESGGGLVQAGGSLRLSCAASGLTFEKYAMGWYRQAPGKERELVAAISQDGGSTYYADSVKGRFTISRDNAKNTVYLQMNSLKPEDTAVYYCATGLGYFSRLDYWGQGTQVTVSS”, the “polyreactivity (PSR sort gate)” value is given as “low polyreactivity”.

Turning to “QVHLVESGGGLVQAGGSLRLTCAASGSIFLYYAMGWYRQAPGKERELVAGIRRGGRTNYADSVKGRFTISRDNAKNTVYLQMNSLKPEDTAVYYCAKGGYWGQGTLVTVSS”, the “polyreactivity (PSR sort gate)” value is listed as “high polyreactivity”.

“QVQLVESGGGLVQAGGSLRLSCAASGFTFYYYVMGWSRQAPGKERELVAAITRSGGSTYYADSVKGRFTISRDNAKNTVYLQMNSLKPEDTAVYYCNAYVPPKAASAAYDYWGQGTQVTVSS”: the “polyreactivity (PSR sort gate)” value was “high polyreactivity”.

Consider “QVQLVESGGGLVQAGGSLRLSCAASGRTLDKYAIGWYRQAPGKERELVAAITSGGTTKYADSVKGRFTISRDNAKNTVYLQMNSLKPEVTAVYYCAKDLEGNPHFSYGIDFDYWGQGTQVTVSS”, for which the “polyreactivity (PSR sort gate)” value is listed as “low polyreactivity”.

“QVQLVESGGGLVQAGGSLRLSCAASGFIFKKYVMGWYRQAPGKERELVAGISRSGGSTYYADSVKGRFTISRDNAKNTVYLQMNSLKPEDTAVYYCAAYIYQSPTRGGGYWGQGTQVTVSS”: the “polyreactivity (PSR sort gate)” value was “high polyreactivity”.

As to “QVQLVESGAGLVQAGGSLRLSCAASGSIFVQYAMGWSRQAPRNERELVAGISSIGGSTYYADSVKGRFTLSRDNSKNSVYLQMNSLKPEDTAVYYCAKRWRSSYRIGHDYWRQGTQVTVSS”, the “polyreactivity (PSR sort gate)” value is reported as “low polyreactivity”.

Turning to “QVQLVESGGGLVQAGGSLRLSCAASGFTFRAYAMGWYRQAPGKERELVAAITSGTRTYYADSVKGRFTISRDNAKNTVYLQMNSLKPEDTAVYDCAVGFILPSTFTRMYYWGQGTQVTVSS”, the “polyreactivity (PSR sort gate)” value is listed as “high polyreactivity”.

For “QVQLVESGGGLVQAGGSLRLSCAASGRTFKPYAMGWYRQAPGKERELVAAISTGGSTNYADSVKGRFTISRDNAKNTVYLQMKSLKPEDTAVYYCAALYSYFWLIIDYGYWGQGTQVTVSS”, the “polyreactivity (PSR sort gate)” value was “low polyreactivity”.

For the sequence “QVQLVESGGGLVQAGGSLRLSCAASGRTFYIYAMGWYRQAPGKERELVAAITYGGGRTFYADSVKGRFTISRDNAKNTVYLQMNSLKPEDTAVYYCAASVRGKRSTYDYWGQGTQVTVSS”, the “polyreactivity (PSR sort gate)” value was “high polyreactivity”.

With “QVQLVESGGGLVQAGGSLRLSCAASGFTFRRYAMGWYRQAPGKERELVAGITGRGGSTYYADSVKGRFTISRDNSKNTVYLQMNSLKPEDTAVYYCNKPRAARGYLTGQLDYWGQGTQVTVSS”, the “polyreactivity (PSR sort gate)” value is “high polyreactivity”.

As for “QVHRVESGGGLVQAGGCLRLSCAASGRTFARYVMGGYRQAPGKERELVAAINSGGTTYYADSVKGRFTISRDNAKNTVYLQMNSLKPEDTAVYYCNGRRGHYAYDYWGQGTQVTVSS”, the “polyreactivity (PSR sort gate)” value was “high polyreactivity”.

As for “QVQLVESGGGLVQAGGSLRLSCAASGSIFGLYAMGWYRQAPGKERELVAAINQSGGSTSYADSVKGRFTISRDNAKNTVYLQMNSLKPEDNAVYYCNRVRLNTEGFDYWGQGTQVTVSS”, the “polyreactivity (PSR sort gate)” value is recorded as “low polyreactivity”.

In the case of “QVQLVESGGGLVQAGGSLRLSCAASGRTFAYNAMGWYRQAPGKERELVAAISRSGGSTYYADSVKGRFTISRDNAKNTVYLQMNSLKPEDTAVYYCNKVTHSYLYFAAGDYWGLGTQVTVSS”, the “polyreactivity (PSR sort gate)” value is given as “high polyreactivity”.

Turning to “QVQLQESGGGLVQAGGSLRLSCAASGSISHYIFRGWYRQAPGKEPEFVAGIGYGGTTNYADSVKGRFTISRDNAKNTVYLQMNSLKPEDTAMYYCAAREATEFYLYYWGQGTQVTVIS”, the “polyreactivity (PSR sort gate)” value is on record as “low polyreactivity”.

Turning to “QVQLVESGGGLVQAGGSLRLSCAASGFTFYINAMGWYRQAPGKEREFVAAITSRGGSTYYADSVKGRFTISRDNAKNTVYLQMNSLKPEDTAVYYCAARNFLSRRGTYDYWGQGTQVTVSS”, the “polyreactivity (PSR sort gate)” value is “high polyreactivity”.

On to “QVQLVESGGGLVQAGGSLRLTCAASGNTFSPNAMGWYRHAPGKERELVAAIDSRDGITYYADSVKGRFTISRDNAKNTVYLQMNSLKPEDTAVYYCAADEWYGESNFWGQGTQVTVSS”, for which the “polyreactivity (PSR sort gate)” value is listed as “low polyreactivity”.

Regarding “QVQLVESGGGLVQAGGSLRLSCAASGRIFVTNAMGWYRQAPGKERELVAAITRGGSTNYADSVKGRFTISRDNAKNTVYLQMNSLKPEDTAVYYCAAKRRYYGPWSRIGYDYWGQGTQVTVSS”, the “polyreactivity (PSR sort gate)” value is given as “low polyreactivity”.

“QVQLVESGGGLVQAVGSLRLSCAASGRIFDTYVMGWYRQAPGKEREMVAAISGSGGSTYYADSVKGRFTISRDNAKNTVYLQMNSLKPEDTAVYYCSAARRYYAYRYDYWGQGTQVTVSS”: the “polyreactivity (PSR sort gate)” value is “high polyreactivity”.

With “QVQLVESGGGLVQAGGSLRLSCAASGRTFRSYAMGWYRQAPGKERELVAAISYGGGRTFYADSVKGRFTISRDNAKNTVYLQMNSLKPEDTAVYYCNAAFPRSYRFDYWGQGTKVTVSS”, the “polyreactivity (PSR sort gate)” value is given as “high polyreactivity”.

Take “QVQLVESGGGLVQAGGSLRLTCAASGRIFTRYSMGWYRKAPGKEREFVAAITNSGASTYYADSVKGRFTISRDNAKITVYLQMNSLKPEDTAVYYCAGDGPYWWDYDYWGQGTQETVSS”: the “polyreactivity (PSR sort gate)” value is “high polyreactivity”.

Turning to “QVQLVESGGGLVQAGGSLRLICAGSGLTFPYYTMGWYRQAPGEERELVAAISRRGGSTYYADSVKGRFTISRDNAKNTVYLQMNSLKPEDTAVYYCAADKYSWYDYWGQGTQVTVSS”, the “polyreactivity (PSR sort gate)” value was “low polyreactivity”.

For “QDQLVESGGGLVQAGGSLRLSCAASGSIFSTYAMGWYRQAPGKERELVAAIDGSGGSTYADSVKGRFTISRDNAKNTVYLQMNSLKPEDTAVYYCAVDSFLVYSAVRPYDYWGQGTQVTVSS”, the “polyreactivity (PSR sort gate)” value is “low polyreactivity”.

Regarding “QDQLVESGGGLVQAGGSLRLSCAASGLTFFYYAMGWSRQSPGKERELVAAISRGGSTYYADSVKGRFTISRDHAKYTVYLQMKSLNPEDTAVYYCAAKTYQKEIVRPMYYWGQGTQVTVSS”, the “polyreactivity (PSR sort gate)” value is reported as “high polyreactivity”.

On to “QVQLVESGGCLVQAGGSLRLSCAASGRTFSSNALGWYRHAPGKERELVAAITTTGGRTYYADSVKGRFTISRDNAKNTVYLQMNSLKPEDTAVYYCAARRRYGYDFWGHGTQVTVSS”, for which the “polyreactivity (PSR sort gate)” value is given as “high polyreactivity”.

For “QVQLVESGGGLVQAGGSLRLSCAASGSTFPPYVMGWYRQAPGKERELVAAISRGGGSTYYADSVKGRFTISRDNAKNTVYLQMNSLKPEDTAVYYCAAKNVYHDDYWGQGTQVTVSS”, the “polyreactivity (PSR sort gate)” value was “high polyreactivity”.

“QVQLVESGGGLVQAGGSLRLSCAASGFIFRNYAMGWYRQAPGKERELVASISRGTSTNYADSVKGRFTISRDNAKNTVDLQMNSLKPEDTAVYYCAVGRYPYGSARYGFDYWGQGTQVSVSS”: the “polyreactivity (PSR sort gate)” value was “high polyreactivity”.

As for “QVQLVESGGGLVQAGGSLRLSCAASGFIFVRNAMGWYRQAPGKERELVAAITGRGGRTYYADSVKGRFTISRDNAKNTVYLQMNSLKPEDTAVYYCAKDSPDDHFGYWGQGTQVTVSS”, the “polyreactivity (PSR sort gate)” value is given as “high polyreactivity”.

For the sequence “QVQLVESGGGLVQAGGSLRLSCASSGRIFQYYVKGWYRQAPGKERELVAAITSGGGTKYADSVKGRFTISRDNENNTVYLQMNSLKPEDTAVYYCAAAWFDQYSRYDYWGQGTQVTVSS”, the “polyreactivity (PSR sort gate)” value was “low polyreactivity”.

Turning to “QVQLVESGGGLVQAGGSLRLSCAASGRTFATYAMGWYRQEPGKERELVAAISTSGGSTYYADSVKGRFTISRDNAKNTVYLQMNSLKPEDTAVYYCAAVLSWRGYTCPVYAFDYWGQGTQVTVSS”, the “polyreactivity (PSR sort gate)” value is given as “high polyreactivity”.

Regarding “QVQLVESGGGLVQAGGSLRISCAASGIIFSYYAMGWYRQAPGKERELVAAIRENGGSTYYADSVKGRFTISRDNAKNTVYLQMNSLKPEDTAVYYCAVDTTYYAGYEYDYWGQGTQVTVSS”, the “polyreactivity (PSR sort gate)” value was “low polyreactivity”.
